For this series, the target named is T1, CRPM (cAMP receptor protein of Mtb) (Mycobacterium tuberculosis) (UniProt P9WMH3).
T1 sequence: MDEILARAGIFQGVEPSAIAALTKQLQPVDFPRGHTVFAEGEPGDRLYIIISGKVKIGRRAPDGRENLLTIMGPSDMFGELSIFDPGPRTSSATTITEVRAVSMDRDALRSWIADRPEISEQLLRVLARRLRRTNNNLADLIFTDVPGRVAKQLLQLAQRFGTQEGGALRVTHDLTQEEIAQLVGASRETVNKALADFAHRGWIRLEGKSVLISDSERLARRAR
The experiment in a line: EMSA. (In general: A gel shift assay detects complexes by their altered migration in electrophoresis.)

Turning to “TCAGCGACCGTCAGCACGCCAGTTCAATACGGCGAGAAGCGCGTTCTCATCGAAAGTCGGTCAAGCTGGCGGACTGAGCACTGCTCTCCGGGCTTGACCGGGGCCTCTCCCAGCTACGCCCCGAGCGTGTGCCCTGCCGACACGCGGGAACAAGACCCGCACGACCAGCGTTAGCATGCTCAGTAAGTTGAGTGCATCAGGCTCAGCTCTGAATTGACAGCACACCGCCGTCGAGGCAAGCTTGAGCGGGGTGCACTCATCATAGTGCAGGAAAGAAGCTCTACATATTCAGGAGGATTCACC (double strand) [dnaK-303]”, the binding signal (fold reduced vs dnaK-346) was found to be 2.

The values are drawn from paper PMC3938503.
